Tests used:
NADH oxidation, A340 = substrate: C/C=C/C(=O)SCCNC(=O)CCNC(=O)[C@H](O)C(C)(C)COP(=O)(O)OP(=O)(O)OC[C@H]1O[C@@H](n2cnc3c(N)ncnc32)[C@H](O)[C@@H]1OP(=O)(O)O; test: NADH oxidation, A340; type: biochemical, Winmispira thermophila; conditions: 0.3 mM NADH, 100 mM MOPS-KOH pH 7.5, 55 °C
Source text: NADH oxidation, A340 on St_Ter

NAD(P)H oxidation, A340 [1] = substrate: NC(=O)C1=CN([C@@H]2O[C@H](COP(=O)(O)OP(=O)(O)OC[C@H]3O[C@@H](n4cnc5c(N)ncnc54)[C@H](O)[C@@H]3O)[C@@H](O)[C@H]2O)C=CC1; test: NAD(P)H oxidation, A340; type: biochemical, Winmispira thermophila; conditions: crotonyl-CoA as substrate, 100 mM MOPS-KOH pH 7.5, 55 °C, varied: cofactor
Source text: (§1) NAD(P)H oxidation, A340 on St_Ter

NAD(P)H oxidation, A340 [2] = substrate: NC(=O)C1=CN([C@@H]2O[C@H](COP(=O)(O)OP(=O)(O)OC[C@H]3O[C@@H](n4cnc5c(N)ncnc54)[C@H](OP(=O)(O)O)[C@@H]3O)[C@@H](O)[C@H]2O)C=CC1; test: NAD(P)H oxidation, A340; type: biochemical, Winmispira thermophila; conditions: crotonyl-CoA as substrate, 100 mM MOPS-KOH pH 7.5, 55 °C, varied: cofactor
Source text: as §1

coupled Hbd assay, A340 = substrate: CC(=O)SCCNC(=O)CCNC(=O)[C@H](O)C(C)(C)COP(=O)(O)OP(=O)(O)OC[C@H]1O[C@@H](n2cnc3c(N)ncnc32)[C@H](O)[C@@H]1OP(=O)(O)O; test: coupled Hbd assay, A340; type: biochemical, Thermoanaerobacterium thermosaccharolyticum; conditions: coupled with Hbd, 100 mM MOPS-KOH pH 7.5, 55 °C
Source text: coupled Hbd assay, A340 on Tt_Thl

| Protein | Km (NAD(P)H oxidation, A340 [1]) | Vmax (NAD(P)H oxidation, A340 [1]) | Km (NAD(P)H oxidation, A340 [2]) | Vmax (NAD(P)H oxidation, A340 [2]) | further results |
| --- | --- | --- | --- | --- | --- |
| St_Ter (Winmispira thermophila DSM 6578) (protein, His-tagged (vector pD861-CH), codon-optimised, expressed in E. coli BL21(DE3)) MVIKPMIRNNICMNAHPEGCRLFVDRQIDYVRQRGPLSSGPKNVLVVGSSGGYGLATRIAAGFGAGAATIGVYFEKEPSEKRTGTPGWYAARHFLKRAEAAGLKVHDINGDAFSFEVKAQVVDLIKKEYGTIDLFVYSLASGVRTDPVSGVTYRSALKPIGRTYTSKALDPLKREVVQAAIEPASEEEIEATVKVMGGEDWQLWVEALKEGGVLAEGAVTVAYSYIGPELTRPIYREGTIGKAKEHLEATAKTLDEALASVGGKAYVSVNKAVVTRASAVIPAVPLYLSILFTVMKAKGIHEGCIEQMYRMLAERLYAGGPVPVDDEGRIRMDDWEMREDVQREVAEVWERITTETLDTEADVDGYLTDFLNLHGFGFKEIDYEKEVDPREG | 30 ± 10 µM | 18.2 µmol/min/mg | 400 ± 100 µM | 12.2 µmol/min/mg | Km (NADH oxidation, A340): 30 ± 10 µM |
| St_Ter (Winmispira thermophila DSM 6578; E75A) (protein, His-tagged (vector pD861-CH), codon-optimised, expressed in E. coli BL21(DE3)) MVIKPMIRNNICMNAHPEGCRLFVDRQIDYVRQRGPLSSGPKNVLVVGSSGGYGLATRIAAGFGAGAATIGVYFAKEPSEKRTGTPGWYAARHFLKRAEAAGLKVHDINGDAFSFEVKAQVVDLIKKEYGTIDLFVYSLASGVRTDPVSGVTYRSALKPIGRTYTSKALDPLKREVVQAAIEPASEEEIEATVKVMGGEDWQLWVEALKEGGVLAEGAVTVAYSYIGPELTRPIYREGTIGKAKEHLEATAKTLDEALASVGGKAYVSVNKAVVTRASAVIPAVPLYLSILFTVMKAKGIHEGCIEQMYRMLAERLYAGGPVPVDDEGRIRMDDWEMREDVQREVAEVWERITTETLDTEADVDGYLTDFLNLHGFGFKEIDYEKEVDPREG | 600 ± 100 µM | 10.3 µmol/min/mg | 20 ± 10 µM | 68.1 µmol/min/mg |  |
| Tt_Thl (Thermoanaerobacterium thermosaccharolyticum DSM 571) (protein, His-tagged (vector pD861-CH), codon-optimised, expressed in E. coli BL21(DE3)) MKEVVIASGVRTAVGKFGGTLLNVPAVDLGAVVIKEALKRANVKPEDVSEVIMGNVLQAGLGQNPARQAEIKAGIPVEVPAMTVNMVCGSGLRAVTLAAQAVMLGDADIVVAGGMENMSRAPYILNDARFGYRMNNGQLVDEMVYDGLTDVFNQYHMGITAENLAEKYGISREEQDEFAYRSQKLASEAISSGRFEDEIVPVIVPQKKGEPIEFKVDEHVRPNTTIEALAKLKPAFKKDGTVTAGNASGINDAAAAVVVMSKEKADELGIKPLATIKSFGYAGVDPSIMGIGPVYATRKALEKANLTVDDLDLIEANEAFAAQSLAVAKELKFNMDRVNVNGGAIAIGHPIGASGCRILVTLLYEMQKRNSHTGLATLCIGGGMGIAMVVER |  |  |  |  | Km (coupled Hbd assay, A340; 0.3 mM NADH): 2400 ± 580 µM |
| Tt_Thl (Thermoanaerobacterium thermosaccharolyticum DSM 571; H156N/N223V/P222F/R133G) (protein, His-tagged (vector pD861-CH), codon-optimised, expressed in E. coli BL21(DE3)) MKEVVIASGVRTAVGKFGGTLLNVPAVDLGAVVIKEALKRANVKPEDVSEVIMGNVLQAGLGQNPARQAEIKAGIPVEVPAMTVNMVCGSGLRAVTLAAQAVMLGDADIVVAGGMENMSRAPYILNDARFGYGMNNGQLVDEMVYDGLTDVFNQYNMGITAENLAEKYGISREEQDEFAYRSQKLASEAISSGRFEDEIVPVIVPQKKGEPIEFKVDEHVRFVTTIEALAKLKPAFKKDGTVTAGNASGINDAAAAVVVMSKEKADELGIKPLATIKSFGYAGVDPSIMGIGPVYATRKALEKANLTVDDLDLIEANEAFAAQSLAVAKELKFNMDRVNVNGGAIAIGHPIGASGCRILVTLLYEMQKRNSHTGLATLCIGGGMGIAMVVER |  |  |  |  | Km (coupled Hbd assay, A340; variant M2, NADH): 2600 ± 500 µM; Vmax (coupled Hbd assay, A340; variant M2, NADH): 45.2 µmol/min/mg |
| Tt_Thl (Thermoanaerobacterium thermosaccharolyticum DSM 571; N153Y/S287K/V77Q) (protein, His-tagged (vector pD861-CH), codon-optimised, expressed in E. coli BL21(DE3)) MKEVVIASGVRTAVGKFGGTLLNVPAVDLGAVVIKEALKRANVKPEDVSEVIMGNVLQAGLGQNPARQAEIKAGIPQEVPAMTVNMVCGSGLRAVTLAAQAVMLGDADIVVAGGMENMSRAPYILNDARFGYRMNNGQLVDEMVYDGLTDVFYQYHMGITAENLAEKYGISREEQDEFAYRSQKLASEAISSGRFEDEIVPVIVPQKKGEPIEFKVDEHVRPNTTIEALAKLKPAFKKDGTVTAGNASGINDAAAAVVVMSKEKADELGIKPLATIKSFGYAGVDPKIMGIGPVYATRKALEKANLTVDDLDLIEANEAFAAQSLAVAKELKFNMDRVNVNGGAIAIGHPIGASGCRILVTLLYEMQKRNSHTGLATLCIGGGMGIAMVVER |  |  |  |  | Km (coupled Hbd assay, A340; variant M1, NADH): 3300 ± 700 µM; Vmax (coupled Hbd assay, A340; variant M1, NADH): 15.3 µmol/min/mg |

Reference: paper PMC6652007, “Metabolic engineering of Clostridium thermocellum for n-butanol production from cellulose” (Biotechnology for Biofuels, 2019)
